# System: MutY (Escherichia coli)
# Conditions: A.G to C-G correction by complementation of mutS mutY extract; fraction V
substance,measurement,value
A.G mismatch heteroduplex,activity,480000 units/mg

# From patent US5556750
